Assays:
[1] = target: TBEV prMe-linker-sE single-chain construct (Tick-borne encephalitis virus, strain Neudoerfl); test: crystal structure; prMe-linker-sE single chain, crystallisation pH 3.5, PDB 7QRF
[2] = target: Tick-borne encephalitis virus (TBEV) soluble envelope protein E (sE) (Tick-borne encephalitis virus, strain Neudoerfl); test: crystal structure
[3] = target: Tick-borne encephalitis virus (TBEV) soluble envelope protein E (sE) (Tick-borne encephalitis virus, strain Neudoerfl); test: SEC-MALS
[4] = target: TBEV prMe-linker-sE single-chain protein (tick-borne encephalitis virus strain Neudoerfl) (UniProt P14336); test: crystal structure; uncleaved single-chain prMe-linker-sE; PDB 7QRF

## TBEV prMe-linker-sE single-chain construct
[1]
  stoichiometry N: 2

## Tick-borne encephalitis virus (TBEV) soluble envelope protein E (sE) (domain or fragment)
[2]
  stoichiometry N: 2
[3]
  stoichiometry N: 2

## TBEV prMe-linker-sE single-chain protein (from UniProt P14336 2-401)
[4]
  stoichiometry N: 2
